In PMC5027287, “Real-time observation of DNA recognition and rejection by the RNA-guided endonuclease Cas9”:
Substitutions are numbered along the chain they refer to.

B1: Cognate DNA + guide RNA (mixed)
DNA 1: AACGCAACGTCGTCAGCTGTCTGCACAGCAGAAATCTCTGCTGACGCATAAAGATGAGACGCTGGAGTACAAACGTCAGCTTGCT
DNA 2: AGCAAGCTGACGTTTGTACTCCAGCGTCTCATCTTTATGCGTCAGCAGAGATTTCTGCTGTGCAGACAGCTGACGACGTTGCG
RNA 1: GACGCAUAAAGAUGAGACGCGUUUUAGAGCUAUGCUGUUUUG
RNA 2: GGACAGCAUAGCAAGUUAAAAUAAGGCUAGUCCGUUAUCAACUUGAAAAAGUGGCACCGAGUCGGUGCUUUUU
B2: 17-20mm (mixed)
DNA 1: B1 DNA 1 with G43C, A44T, C45G, G46C
DNA 2: B1 DNA 2 with C40G, G41C, T42A, C43G
RNA 1: B1 RNA 1
RNA 2: B1 RNA 2
B3: 12-20mm (mixed)
DNA 1: B1 DNA 1 with G43C, A44T, C45G, G46C, C47G, A48T, T49A, A50T, A51T
DNA 2: B1 DNA 2 with T35A, T36A, A37T, T38A, G39C, C40G, G41C, T42A, C43G
RNA 1: B1 RNA 1
RNA 2: B1 RNA 2
B4: 11-20mm (mixed)
DNA 1: B1 DNA 1 with G43C, A44T, C45G, G46C, C47G, A48T, T49A, A50T, A51T, A52T
DNA 2: B1 DNA 2 with T34A, T35A, T36A, A37T, T38A, G39C, C40G, G41C, T42A, C43G
RNA 1: B1 RNA 1
RNA 2: B1 RNA 2
B5: 9-20mm (mixed)
DNA 1: AACGCAACGTCGTCAGCTGTCTGCACAGCAGAAATCTCTGCTCTGCGTATTTCTTGAGACGCTGGAGTACAAACGTCAGCTTGCT
DNA 2: AGCAAGCTGACGTTTGTACTCCAGCGTCTCAAGAAATACGCAGAGCAGAGATTTCTGCTGTGCAGACAGCTGACGACGTTGCG
RNA 1: B1 RNA 1
RNA 2: B1 RNA 2
B6: 10-20mm (mixed)
DNA 1: B5 DNA 1 with T54A
DNA 2: B5 DNA 2 with A32T
RNA 1: B1 RNA 1
RNA 2: B1 RNA 2
B7: 13-20mm (mixed)
DNA 1: B5 DNA 1 with T51A, T52A, C53G, T54A
DNA 2: B5 DNA 2 with A32T, G33C, A34T, A35T
RNA 1: B1 RNA 1
RNA 2: B1 RNA 2

Tests used:
Cas9 (SpCas9) [1] = molecular target: T1, Cas9 (SpCas9) (Streptococcus pyogenes, UniProt Q99ZW2 1-1368); assay: smFRET; 20 nM Cas9-RNA; koff <0.006 s-1, lifetime >3 min (photobleaching limit); Immobilized biotin/Cy3 DNA, 20 nM Cas9-RNA (Cy5 crRNA), 0.1 s frames; imaging buffer, pH and temperature not in the material; kon ~6e6 M-1 s-1; settings: protein: recombinant, tags: His10-MBP removed by TEV, label: Cy3 (DNA), biotin (DNA), DNA duplex 1:2, 5' overhang 2 nt on strand 1, crRNA 3 : tracrRNA 4, guide pairs strand 2
Cas9 (SpCas9) [2] = molecular target: T1, Cas9 (SpCas9); assay: smFRET; 20 nM; bound fraction as cognate; Immobilized biotin/Cy3 DNA, 20 nM Cas9-RNA (Cy5 crRNA), 0.1 s frames; imaging buffer, pH and temperature not in the material; kon ~6e6 M-1 s-1; settings: protein: recombinant, tags: His10-MBP removed by TEV, label: Cy3, biotin, as N1
Cas9 (SpCas9) [3] = molecular target: T1, Cas9 (SpCas9); assay: smFRET; 20 nM; bound fraction as cognate; bound lifetime ~16 s; Immobilized biotin/Cy3 DNA, 20 nM Cas9-RNA (Cy5 crRNA), 0.1 s frames; imaging buffer, pH and temperature not in the material; kon ~6e6 M-1 s-1; settings: protein: recombinant, tags: His10-MBP removed by TEV, label: Cy3, biotin, as N1

T1 sequence (Q99ZW2 whole entry): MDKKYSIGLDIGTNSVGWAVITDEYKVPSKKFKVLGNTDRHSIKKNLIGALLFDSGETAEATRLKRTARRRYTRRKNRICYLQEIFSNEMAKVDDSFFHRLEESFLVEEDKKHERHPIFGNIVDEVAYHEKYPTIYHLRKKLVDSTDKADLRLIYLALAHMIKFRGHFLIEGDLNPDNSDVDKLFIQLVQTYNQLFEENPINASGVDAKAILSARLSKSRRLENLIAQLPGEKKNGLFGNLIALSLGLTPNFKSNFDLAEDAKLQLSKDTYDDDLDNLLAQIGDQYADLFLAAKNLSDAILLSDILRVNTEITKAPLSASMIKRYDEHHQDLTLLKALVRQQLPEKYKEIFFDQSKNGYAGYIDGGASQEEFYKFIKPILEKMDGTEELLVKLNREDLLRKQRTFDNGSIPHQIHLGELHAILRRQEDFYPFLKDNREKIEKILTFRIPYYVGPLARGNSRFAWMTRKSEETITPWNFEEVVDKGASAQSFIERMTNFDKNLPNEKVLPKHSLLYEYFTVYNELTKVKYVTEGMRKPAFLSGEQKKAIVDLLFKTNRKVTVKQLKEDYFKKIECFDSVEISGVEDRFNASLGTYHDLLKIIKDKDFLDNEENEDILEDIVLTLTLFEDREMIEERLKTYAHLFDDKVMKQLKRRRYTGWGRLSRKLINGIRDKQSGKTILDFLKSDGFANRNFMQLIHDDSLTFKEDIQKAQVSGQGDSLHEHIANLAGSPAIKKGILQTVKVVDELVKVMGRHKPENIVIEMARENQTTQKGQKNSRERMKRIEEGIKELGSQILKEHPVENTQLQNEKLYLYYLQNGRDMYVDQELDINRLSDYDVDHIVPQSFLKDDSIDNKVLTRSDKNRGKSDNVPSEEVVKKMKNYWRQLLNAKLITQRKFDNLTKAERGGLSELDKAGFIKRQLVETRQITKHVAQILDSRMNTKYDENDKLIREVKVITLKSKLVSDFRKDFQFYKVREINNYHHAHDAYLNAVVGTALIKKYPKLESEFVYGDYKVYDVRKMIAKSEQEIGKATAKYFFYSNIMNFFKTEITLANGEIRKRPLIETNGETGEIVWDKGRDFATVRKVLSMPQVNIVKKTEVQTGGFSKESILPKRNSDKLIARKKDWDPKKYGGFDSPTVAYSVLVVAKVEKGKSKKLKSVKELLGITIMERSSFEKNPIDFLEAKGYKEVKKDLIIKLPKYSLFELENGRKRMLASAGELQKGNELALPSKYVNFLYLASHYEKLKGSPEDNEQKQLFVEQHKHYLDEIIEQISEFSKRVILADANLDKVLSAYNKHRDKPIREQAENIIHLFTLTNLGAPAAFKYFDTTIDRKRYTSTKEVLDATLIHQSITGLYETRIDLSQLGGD

| Binder | binding result (Cas9 (SpCas9) [2]) | also measured |
| --- | --- | --- |
| B1 |  | binding result (Cas9 (SpCas9) [1]): binds |
| B2 | binds |  |
| B3 | binds |  |
| B4 | binds |  |
| B5 |  | binding result (Cas9 (SpCas9) [3]): binds |
| B6 | binds |  |
| B7 | binds |  |
